pKd: −log10 of the molar value.

Test [1] has as its target soluble full-length recombinant ADAMTS13 (UniProt Q76LX8).
For test [2] the target is unchanged. Put plainly: SPR; Biacore T200; ADAMTS13, MDTCS (or fibrinogen) immobilised on CM5 by amine coupling (500-1000 RU); analytes 0-7 µM (or 0-3.5 µM) with 5 mM AEBSF and 10 µM VFKck; 20 mM HEPES-NaOH, 150 mM NaCl, pH 7.4, 0.01% Tween-20, 10 mM CaCl2, 10 µM ZnCl2; 20 µl/min, 25 °C; equilibrium responses fitted to a one-site binding model. Background: In SPR one partner is held on a chip, and binding of the other changes the refractive index at the surface.

A further test deals with fibrinogen. The test is described as above.

Sequence of UniProt Q76LX8 (Q76LX8 75-1427): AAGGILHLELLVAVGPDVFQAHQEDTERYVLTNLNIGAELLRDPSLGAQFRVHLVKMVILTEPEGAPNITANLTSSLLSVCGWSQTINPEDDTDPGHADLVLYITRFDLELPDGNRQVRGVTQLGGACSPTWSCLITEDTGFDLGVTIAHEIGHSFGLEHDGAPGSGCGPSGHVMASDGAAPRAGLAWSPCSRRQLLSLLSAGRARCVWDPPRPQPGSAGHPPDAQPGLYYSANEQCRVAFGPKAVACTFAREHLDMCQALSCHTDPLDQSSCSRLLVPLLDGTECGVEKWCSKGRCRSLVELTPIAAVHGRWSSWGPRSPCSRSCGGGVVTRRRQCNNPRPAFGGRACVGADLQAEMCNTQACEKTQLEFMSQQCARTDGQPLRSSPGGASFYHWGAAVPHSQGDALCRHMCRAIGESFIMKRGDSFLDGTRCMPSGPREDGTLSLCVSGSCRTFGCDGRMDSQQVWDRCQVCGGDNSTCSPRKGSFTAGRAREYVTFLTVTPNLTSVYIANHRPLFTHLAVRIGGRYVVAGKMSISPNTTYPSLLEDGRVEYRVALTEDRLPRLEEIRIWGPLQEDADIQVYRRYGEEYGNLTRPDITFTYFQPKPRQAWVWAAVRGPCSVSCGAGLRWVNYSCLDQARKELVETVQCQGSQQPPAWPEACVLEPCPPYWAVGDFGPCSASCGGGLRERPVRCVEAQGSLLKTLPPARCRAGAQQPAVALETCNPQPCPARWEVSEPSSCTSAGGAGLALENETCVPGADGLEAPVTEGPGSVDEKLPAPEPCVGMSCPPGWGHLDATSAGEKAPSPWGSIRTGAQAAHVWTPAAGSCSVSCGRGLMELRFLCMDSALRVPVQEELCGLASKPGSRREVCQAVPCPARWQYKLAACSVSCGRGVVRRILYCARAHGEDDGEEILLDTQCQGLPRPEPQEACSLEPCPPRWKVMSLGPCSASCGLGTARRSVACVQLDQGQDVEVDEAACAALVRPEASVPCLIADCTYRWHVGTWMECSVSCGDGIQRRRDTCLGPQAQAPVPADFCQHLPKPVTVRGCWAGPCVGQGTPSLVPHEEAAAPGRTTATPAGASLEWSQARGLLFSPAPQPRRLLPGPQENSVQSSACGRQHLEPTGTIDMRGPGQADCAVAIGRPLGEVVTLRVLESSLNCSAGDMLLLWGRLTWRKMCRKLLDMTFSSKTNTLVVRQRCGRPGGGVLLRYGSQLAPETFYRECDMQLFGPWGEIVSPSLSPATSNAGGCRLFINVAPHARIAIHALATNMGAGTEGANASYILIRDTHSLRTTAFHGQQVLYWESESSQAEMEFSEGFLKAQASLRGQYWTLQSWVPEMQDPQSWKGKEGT

On to VFK-plasmin (enzyme), for which, in test [1], the rate of degradation of 100 nM ADAMTS13 by 10 nM active plasmin (Prolytix, not VFK-blocked) at 37 °C in the presence of 5 mM TXA; Western blot densitometry of the intact ADAMTS13 band was 0.05 nM/min and the rate of degradation of 100 nM ADAMTS13 by 10 nM active plasmin (Prolytix, not VFK-blocked) at 37 °C without TXA; Western blot densitometry of the intact ADAMTS13 band came to 1.6 nM/min. The negative-log Kd (pKd) (in general, the Kd on a negative log10 scale, so that one unit is a factor of ten) in test [2] was 5.74.

For the substance Glu-plasminogen (natural protein), in test [2], the pKd was 5.55.

With Mini-plasminogen (domain or fragment), the negative-log Kd (pKd) in test [2] is 5.82.

As to Lys-plasminogen (natural protein), the pKd in test [2] is 6.00.

Take “17-kringle form of apolipoprotein(a) (natural protein)”: the pKd with fibrinogen was 5.62; in test [2] it was 5.40.

The values above are taken from article PMC11032339.
